# Reference: the supplement of paper PMC12764529
# ± gives the half width of the 95% confidence interval.
# How the values were obtained:
# [1] = folding stability dG unfold from trypsin proteolysis; higher = more stable
# Method in brief: (§1)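 Mini-proteins designed to be under 80 residues and free of cysteine were carried in a PA-tagged cDNA display construct and digested with trypsin and with chymotrypsin. Each protease was applied at 11 threefold-diluted concentrations, alongside a no-protease condition, before sequencing. K50 came from Bayesian fitting of the sequencing counts, and unfolding free energy was obtained by comparing it with a sequence-predicted unfolded-state K50 and a shared folded-state K50, for each protease separately or for both together. Designs were retained only if their AlphaFold2 dimer inter-PAE exceeded 15.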
# [2] = folding stability dG unfold from chymotrypsin proteolysis; higher = more stable
# Method in brief: as §1
# [3] = folding stability dG unfold (combined trypsin and chymotrypsin); higher = more stable
# Method in brief: as §1
Sequence,folding stability dG unfold [1] [kcal/mol],folding stability dG unfold [2] [kcal/mol],folding stability dG unfold [3] [kcal/mol]
SAGGSEIKIEIKYDEETGELVVEITVPESEEEVKKLVEELKKLGVEKVEIVRDKKTKEYRIRVVFKSAGGSA [r2_358_TrROS_Hall],3.28 ± 0.14,4.98 ± 0.3,4.82 ± 0.57
SAGGSEPEPLRVSEITDIKESVLPNGTLKATVTLKLPEKDEEVEIEVEASSEEEIEEAIEEIVKLESAGGSA [r2_248_JUSTAS],0.678 ± 0.089,0.0425 ± 0.35,0.482 ± 0.21
SAGGSEVETVKVKIKVKIDGKVYEVEAEVEVFTDEDGRKVLRITLPDGRVVEIPLEDADKIEEIEVSAGGSA [r2_297_TrROS_Hall],4.7 ± 0.19,4 ± 0.11,4.25 ± 0.087
SAGGSFEPKREIEITLPNGREIEVWRYPGEGQMWVKLRFPNNGQKVEIPVKSPEDAEDSLKKFLKNSAGGSA [r2_70_TrROS],-0.28 ± 0.29,-0.334 ± 0.35,-0.169 ± 0.25
SAGGSFPIADVKEVKVEAYPETNTAKVPFTFPNGVTAVADAYLDPVTGRPVLVVRTPDGRLVVLPLSAGGSA [r2_490_TrMRF],1.43 ± 0.032,1.15 ± 0.12,1.3 ± 0.094
SAGGSFSVDVPPDATVEVEEKVKRPDGSEVHLKITITRLPTSGKVLVTVEDNPPEKGSTTKEEIVPLESAGG [r13_934_JUSTAS],-0.431 ± 0.38,0.975 ± 0.068,0.658 ± 0.28
SAGGSFVKIKVKFDNKPIEIPIPDFVQKVEGDYQTIVFPEGDADSVLKKLKEASKKIEIVKVEVVKPSAGGS [r8_490_TrMRF],-0.735 ± 0.24,0.618 ± 0.13,0.354 ± 0.12
SAGGSGGLRVELPFLLPDGYRVTLTVNPETGEITEIRVEPIDAVPPEPEVLPVVGFDPRYGVPLVLSAGGSA [r2_78_TrMRF],1.12 ± 0.026,0.344 ± 0.14,0.812 ± 0.12
SAGGSGIDFDIEFHNNHITIDIYMYDPNGQPIFEMTMTIPIPPVPPPPVPEVKVDDPEEAKEAKNQSAGGSA [r2_332_TrROS],0.751 ± 0.14,2.35 ± 0.17,1.89 ± 0.21
SAGGSGKEFEVEKAVFIPLPDDRKLIIVKTKTSIQIVEYNGEEWKLVATYPYKDVPKNPRELLKKKSAGGSA [r2_133_TrMRF],0.454 ± 0.22,1.13 ± 0.14,0.929 ± 0.22
SAGGSGMKLEKEIEVEVDPSGVGAEAVKEAVRAELEKEGYKVKVEIEVSEEEEKLYVKLHVEIYELSAGGSA [r2_172_JUSTAS],0.999 ± 0.064,2.01 ± 0.14,1.57 ± 0.19
SAGGSGMSFSITEEVVIPTPGPRTLLLLKTEGDIIIVERDGERLRPVKTVPRKEVPEEPEKLIEELSAGGSA [r2_133_JUSTAS],-1.07 ± 0.34,-0.243 ± 0.15,-0.434 ± 0.12
SAGGSGMTETIKLSDPKNGLSVTVTVTFDPATGSKSVTITVESSEEAKEKVKALLEEKGLPVTVTSSAGGSA [r2_30_JUSTAS],0.716 ± 0.063,1.55 ± 0.082,1.27 ± 0.081
SAGGSGMVITIPVELPTPRTLTFTFYPETGTATVEVSPGVPAAEVRATVEEVFAAHGLKLNPITLLSAGGSA [r2_497_JUSTAS],0.995 ± 0.02,1.61 ± 0.075,1.39 ± 0.066
SAGGSGPPVLVRLEVEVLGEPYTLTLPVPASLIHPSQRVRFRVRVVSVDPVNNRVTVRIESVELYPSAGGSA [r2_479_TrMRF],2.75 ± 0.065,3.018 ± 0.021,2.98 ± 0.036
SAGGSGQKFEIDRMIHIPLPNGRMLYIMRMKNPIMIMEFNGDNFRPVATVPNDDIPPEIRDLIKKLSAGGSA [r2_133_TrROS],1.95 ± 0.068,2.25 ± 0.11,2.27 ± 0.12
SAGGSGSSMSVSVSVTTSPVSVDPNKPVPIEVATTTTPVSSYDPVTGTSSTTTTTTTVPLGNPEAASAGGSA [r2_489_JUSTAS],2.62 ± 0.081,1.42 ± 0.044,1.98 ± 0.051
SAGGSIEELAREKALEEHKKTGEKNYPFTFEFEIVSSYEFAPDGTPVASSEFPFKITLKFKLPPKKKSAGGS [r16_156_JUSTAS],1.44 ± 0.024,2.88 ± 0.069,2.43 ± 0.12
